T1: SARS-CoV nsp9 (SARS-CoV), P0C6X7
T1 chain: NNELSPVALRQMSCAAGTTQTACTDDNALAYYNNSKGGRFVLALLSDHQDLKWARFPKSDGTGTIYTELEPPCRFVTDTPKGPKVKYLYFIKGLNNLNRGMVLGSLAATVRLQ

B1: SARS-CoV main protease M^pro with authentic ends (enzyme)
chain: SGFRKMAFPSGKVEGCMVQVTCGTTTLNGLWLDDTVYCPRHVICTAEDMLNPNYEDLLIRKSNHSFLVQAGNVQLRVIGHSMQNCLLRLKVDTSNPKTPKYKFVRIQPGQTFSVLACYNGSPSGVYQCAMRPNHTIKGSFLNGSCGSVGFNIDYDCVSFCYMHHMELPTGVHAGTDLEGKFYGPFVDRQTAQAAGTDTTITLNVLAWLYAAVINGDRWFLNRFTTTLNDFNLVAMKYNYEPLTQDHVDILGPLSAQTGIAVLDMCAALKELLQNGMNGRTILGSTILEDEFTPFDVVRQCSGVTFQ
notes: also called 3CL^pro; nsp5
B2: SARS-CoV nsp9, P0C6X7 (natural protein)
chain: T1 chain

Experiments:
native MS = target: the molecule itself; assay: native MS
[1] = target: T1, SARS-CoV nsp9 (SARS-CoV), P0C6X7; assay: native MS; settings: remark: other sources report otherwise

| Binder | stoichiometry N (native MS) | mass fraction of dimers [1] | mass fraction of monomers [1] | stoichiometry N [1] |
| --- | --- | --- | --- | --- |
| B1 | 2 |  |  |  |
| B2 |  | 25% | 75% | 2 |

Reference: publication PMC7078746, “Processing of the SARS-CoV pp1a/ab nsp7–10 region” (Biochemical Journal, 2020)
